The target of this assay is fluorescein-labeled histone H3 N-terminal peptide (residues 1-21) (UniProt P68431 2-22, fluorescein-labeled (position not given)). The assay is described as follows: fluorescence polarisation. In general terms: Polarisation of emitted light reports the rotation of a fluorescent probe.

B1: recombinant UBR7 PHD finger (domain or fragment)
chain: GLYCICKRPYPDPEDEIPDEMIQCVVCEDWFHGRHLGAIPPESGDFQEMVCQACMKR
By Kd is commonly meant the constant that tells how readily two partners part at equilibrium. A low value points to higher affinity. Take B1: the Kd lay within 50 to 100 µM.

These data come from article PMC5775914 (Cell chemical biology, 2017).
